From IntAct's records for PubMed 21746902

B1: Epsin-3 (Saccharomyces cerevisiae), P47160 (parent)
chain: MSLEDTLANMSLYDAKKYFRKAQNVVFNYTEMEGKVREATNNEPWGASSTLMDQISQGTYNFREREEILSMIFRRFTEKAGSEWRQIYKALQLLDYLIKHGSERFIDDTRNSINLIRILETFHYIDSQGRDQGINVRTRVKALIELLSDDNKIRAERKKARETAKKYKGVAGGSASADGSLNSKAGFTSTKVHGISVSADFDSDNEDNEDGSFSQNGYNDNASRATSTPGQGKQEPEDFVDFFSSESSKPSKELIQEDEKKADEEEDDDDEFSEFQSAVPVTNPANSFNLLNTSPIEGMPATTSSMPFYNSSTTDQGKITPAIAEPKKVDPFSSLFSTAKASAEAPSAPKASQAKAAASNPVSNSTTALSTDQDDDDEFGEMHGGAVQQEQNTNNNHTSSKEIDLLSF
B2: t-SNARE VTI1 (Saccharomyces cerevisiae), Q04338 (parent)
chain: MSSLLISYESDFKTTLEQAKASLAEAPSQPLSQRNTTLKHVEQQQDELFDLLDQMDVEVNNSIGDASERATYKAKLREWKKTIQSDIKRPLQSLVDSGDRDRLFGDLNASNIDDDQRQQLLSNHAILQKSGDRLKDASRIANETEGIGSQIMMDLRSQRETLENARQTLFQADSYVDKSIKTLKTMTRRLVANKFISYAIIAVLILLILLVLFSKFK
partner: B1 chain

Variants of: B1
Conditions: with vti1_yeast VTI1, Q04338

| effect of a mutation on the interaction | Variant |
| --- | --- |
| disrupting interaction strength | MSLEDTLANMSLYDAKKYFRKAQNVVFNYTEMEGKVREATNNEPWGASSTLMDQISQGTYNFREREEILSMIFRRFTEKAGSEWRQIYKALQLLDYLIKHGSERFIDDTRNSINLIRILETFHYIDSQGRDQGINVRTRVKALIELLSDDNKIRAERKKAEETAKKYKGVAGGSASADGSLNSKAGFTSTKVHGISVSADFDSDNEDNEDGSFSQNGYNDNASRATSTPGQGKQEPEDFVDFFSSESSKPSKELIQEDEKKADEEEDDDDEFSEFQSAVPVTNPANSFNLLNTSPIEGMPATTSSMPFYNSSTTDQGKITPAIAEPKKVDPFSSLFSTAKASAEAPSAPKASQAKAAASNPVSNSTTALSTDQDDDDEFGEMHGGAVQQEQNTNNNHTSSKEIDLLSF [R161E] |
| disrupting interaction strength | MSLEDTLANMSLYDAKKYFRKAQNVVFNYTEMEGKVREATNNEPWGASSTLMDQISQGTYNFREREEILSMIFRRFTEKAGSEWRQIYKALQLLDYLIKHGSERFIDDTRNSINLIRILETFHYIDSQGRDQGINVRTRVKALIELLSDDNKIRAEEKKARETAKKYKGVAGGSASADGSLNSKAGFTSTKVHGISVSADFDSDNEDNEDGSFSQNGYNDNASRATSTPGQGKQEPEDFVDFFSSESSKPSKELIQEDEKKADEEEDDDDEFSEFQSAVPVTNPANSFNLLNTSPIEGMPATTSSMPFYNSSTTDQGKITPAIAEPKKVDPFSSLFSTAKASAEAPSAPKASQAKAAASNPVSNSTTALSTDQDDDDEFGEMHGGAVQQEQNTNNNHTSSKEIDLLSF [R157E] |

Variants of: B2
Conditions: with ent3_yeast ENT3, P47160

| effect of a mutation on the interaction | Variant |
| --- | --- |
| disrupting interaction strength | MSSLLISYESDFKTTLEQAKASLAEAPSQPLSQRNTTLKHVRQQQDELFDLLDQMDVEVNNSIGDASERATYKAKLREWKKTIQSDIKRPLQSLVDSGDRDRLFGDLNASNIDDDQRQQLLSNHAILQKSGDRLKDASRIANETEGIGSQIMMDLRSQRETLENARQTLFQADSYVDKSIKTLKTMTRRLVANKFISYAIIAVLILLILLVLFSKFK [E42R] |
| disrupting interaction strength | MSSLLISYESDFKTTLEQAKASLAEAPSQPLSQRNTTLKHVEQQQRELFDLLDQMDVEVNNSIGDASERATYKAKLREWKKTIQSDIKRPLQSLVDSGDRDRLFGDLNASNIDDDQRQQLLSNHAILQKSGDRLKDASRIANETEGIGSQIMMDLRSQRETLENARQTLFQADSYVDKSIKTLKTMTRRLVANKFISYAIIAVLILLILLVLFSKFK [D46R] |
| disrupting interaction strength | MSSLLISYESDFKTTLEQAKASLAEAPSQPLSQRNTTLKHVEQQQDELFDLLDQMDVEVNNSIGDASERATYKAKLREWKKTIQSDIKRPLQSLVRSGDRDRLFGDLNASNIDDDQRQQLLSNHAILQKSGDRLKDASRIANETEGIGSQIMMDLRSQRETLENARQTLFQADSYVDKSIKTLKTMTRRLVANKFISYAIIAVLILLILLVLFSKFK [D96R] |
